Measurements: patent US12102667B2, “Polypeptides and antibiotics against gram-negative bacterium comprising the same” (priority 2021, dated 2024)

Columns and labels:
E. coli = experiment: MIC and MBC, broth microdilution in CAA medium; assay type: cell-based, Escherichia coli
Experimental: (§1) The MIC of the LNT113 or antibiotic was determined using modification of the broth microdilution method in a 96-well, round bottom, microplate according to the previously described method (Heselpoth et al., 2019). Exponentially grown cells were diluted to a concentration of 10^6 CFU/ml in a CAA medium, and then cultured with recombinant LNT113 (1-64 μg/ml) or antibiotics at 35° C. for 20 hours. […] The MBC was defined as the lowest concentration of the antibacterial agent with no growth on a plate. All analyses were performed in duplicate.

E. cloacae = experiment: MIC, broth microdilution; assay type: cell-based, Enterobacter cloacae
Experimental: as §1

A. baumannii = experiment: MIC, broth microdilution; assay type: cell-based, Acinetobacter baumannii
Experimental: as §1

K. acrogenes = experiment: MIC, broth microdilution; assay type: cell-based, Klebsiella aerogenes
Experimental: as §1

K. pneumoniae = experiment: Antibacterial activity analysis (colony count after 2 hours in buffer); assay type: cell-based, Klebsiella pneumoniae; conditions: 2 μM
Experimental: The antibacterial activity of the purified protein was tested for E. coli and various K. pneumoniae strains. The bacterium were grown to an exponential phase (OD600=0.5) and harvested by centrifugation at 12,000×g for 3 minutes. Then, the pellets were washed with reaction buffer solution (20 mM Tris-HCl, pH 7.5) and diluted to about 10^6 cells/ml in the buffer solution. Then, 100 μl bacterial suspension was mixed with the purified endolysin of 100 μl in the reaction buffer solution and incubated at 37° C. for 2 hours. Finally, the mixture was diluted with PBS and loaded on an LB plate. After culturing at 37° C. overnight, the bacterial colonies were counted. All the analysis was performed in triplicate.
The same reaction was performed for the selected subject bacterium in 20 mM HEPES-NaOH, 150 mM NaCl [pH 7.4], and the unique antibacterial activity of Tris and dependence of endolysin for turgor pressure were excluded (FIG. 10a and FIG. 10b). […] The bacterial cells grown geometrically were cultured with 2 μM endolysin in low tonicity buffers (20 mM Tris-HCl, pH 7.5 or 20 mM HEPES, pH 7.5) or high tonicity buffers (buffer solution comprising 150 mM NaCl) at 37° C. for 2 hours. The cells treated with storage buffer solution (20 mM Tris-HCl, pH 7.5, 150 mM NaCl buffer solution (pH 7.5)) were used as a negative control group. The dotted line represents the detection limit (1 Log CFU/ml).

[1] = test system: various gram-negative bacterium; experiment: MIC, summary over Table 4 strains; assay type: cell-based; conditions: strains of Table 4
Experimental: as §1

B1: LNT113: fusion polypeptide: Cecropin A, (GGGGS)3 linker, mutant endolysin mtEC340; recombinant form with C-terminal His tag (protein)
chain: MKWKLFKKIEKVGQNIRDGIIKAGPAVAVVGQATQIAKGGGGSGGGGSGGGGSVSRNISNNGIKFTAAFEGFRGTAYRATPNEKYLTIGYGSYGPHVEPGKTITPGQGLLLLNRDMAKAVAAVDAVAHHSLTQSQFDAVCDLVYNAGAGVIAAATGTGKALRSGDVATLRAKLALFINQNGKPLLGLRRRTAGRLALFDGKPWQEAEAIGRAVKG
modifications: synthetic_Met+Cecropin A+GGGGS3 linker+mtEC340
notes: fusion polypeptide: Cecropin A, (GGGGS)3 linker, mutant endolysin mtEC340; recombinant form with C-terminal His tag
B1 was tested, and the MBC (E. coli; E. coli ATCC 8739) was 8 µg/mL, the MIC (E. coli; E. coli ATCC 8739) was 8 µg/mL and the MBC (E. coli; E. coli ATCC 25922) was 64 µg/mL. The MIC (E. coli; E. coli ATCC 25922) was 64 µg/mL, the MBC (E. coli; E. coli ATCC 51739) was 8 µg/mL and the MIC (E. coli; E. coli ATCC 51739) was 8 µg/mL. It also gave an MBC (E. coli; E. coli CCARM 1A746) of 4 µg/mL, an MIC (E. coli; E. coli CCARM 1A746) of 4 µg/mL and an MBC (E. coli; E. coli CCARM 1G490) of 16 µg/mL. It also gave an MIC (E. coli; E. coli CCARM 1G490) of 16 µg/mL, an MBC (E. coli; E. coli ECOR 1) of 8 µg/mL and an MIC (E. coli; E. coli ECOR 1) of 8 µg/mL. The MBC (E. coli; E. coli ECOR 2) was 8 µg/mL, the MIC (E. coli; E. coli ECOR 2) was 8 µg/mL and the MBC (E. coli; E. coli ECOR 9) was 4 µg/mL. It also gave an MIC (E. coli; E. coli ECOR 9) of 4 µg/mL, an MBC (E. coli; E. coli ECOR 15) of 32 µg/mL and an MIC (E. coli; E. coli ECOR 15) of 32 µg/mL. The MBC (E. coli; E. coli ECOR 35) was 16 µg/mL, the MIC (E. coli; E. coli ECOR 35) was 16 µg/mL and the MBC (E. coli; E. coli ECOR 36) was greater than 64 µg/mL. For the same molecule, the MIC (E. coli; E. coli ECOR 36) was greater than 64 µg/mL, the MBC (E. coli; E. coli ECOR 43) was 16 µg/mL and the MIC (E. coli; E. coli ECOR 43) was 16 µg/mL. It also gave an MBC (E. coli; E. coli ECOR 45) of 4 µg/mL, an MIC (E. coli; E. coli ECOR 45) of 4 µg/mL and an MBC (E. coli; E. coli ECOR 52) greater than 64 µg/mL. For the same molecule, the MIC (E. coli; E. coli ECOR 52) was 64 µg/mL, the MBC (E. coli; E. coli ECOR 69) was greater than 64 µg/mL and the MIC (E. coli; E. coli ECOR 69) was greater than 64 µg/mL. For the same molecule, the MBC (E. coli; E. coli F485) was 4 µg/mL, the MIC (E. coli; E. coli F485) was 4 µg/mL and the MBC (E. coli; E. coli F524) was 8 µg/mL. For the same molecule, the MIC (E. coli; E. coli F524) was 8 µg/mL, the MBC (E. coli; E. coli F576) was 4 µg/mL and the MIC (E. coli; E. coli F576) was 4 µg/mL. The MBC (E. coli; E. coli F716) was greater than 64 µg/mL, the MIC (E. coli; E. coli F716) was greater than 64 µg/mL and the MBC (E. coli; E. coli F852) was 16 µg/mL. It also gave an MIC (E. coli; E. coli F852) of 8 µg/mL, an MBC (E. coli; E. coli FORC81) of 8 µg/mL and an MIC (E. coli; E. coli FORC81) of 8 µg/mL. The MBC (E. coli; E. coli UPEC 90) was 64 µg/mL, the MIC (E. coli; E. coli UPEC 90) was 64 µg/mL and the MBC (E. coli; E. coli UPEC 3038) was 16 µg/mL. For the same molecule, the MIC (E. coli; E. coli UPEC 3038) was 16 µg/mL, the MBC (E. coli; E. coli UPEC 3042) was 16 µg/mL and the MIC (E. coli; E. coli UPEC 3042) was 16 µg/mL. It also gave an MBC (E. coli; E. coli UPEC 3051) of 16 µg/mL, an MIC (E. coli; E. coli UPEC 3051) of 16 µg/mL and an MBC (E. coli; E. coli UPEC 3150) of 8 µg/mL. It also gave an MIC (E. coli; E. coli UPEC 3150) of 8 µg/mL, an MBC (E. coli; E. coli UPEC 3151) of 64 µg/mL and an MIC (E. coli; E. coli UPEC 3151) of 64 µg/mL. For the same molecule, the MBC (E. coli; E. coli UPEC 3163) was 16 µg/mL, the MIC (E. coli; E. coli UPEC 3163) was 16 µg/mL and the MBC (E. coli; E. coli UPEC 3164) was 32 µg/mL. The MIC (E. coli; E. coli UPEC 3164) was 32 µg/mL, the MBC (E. coli; E. coli UPEC 3168) was 8 µg/mL and the MIC (E. coli; E. coli UPEC 3168) was 8 µg/mL. The MBC (E. coli; E. coli UPEC 3181) was 8 µg/mL, the MIC (E. coli; E. coli UPEC 3181) was 8 µg/mL and the “MBC compared with MIC” value (E. coli; various E. coli strains) was “same as MIC”. For the same molecule, the “MIC in most of the strains” value (E. coli; various E. coli strains of Table 2) was 4 to 64 µg/mL, the MIC (E. cloacae; E. cloacae ATCC 13047) was 16 µg/mL and the MIC (E. cloacae; E. cloacae CCARM 0252) was 4 µg/mL. The MIC (E. cloacae; E. cloacae CCARM 16003) was 8 µg/mL, the MIC (A. baumannii; A. baumannii ATCC (first ATCC line, number not given)) was 8 µg/mL and the MIC (A. baumannii; A. baumannii ATCC (second ATCC line, number not given)) was 16 µg/mL. It also gave an MIC (A. baumannii; A. baumannii CCARM) of 8 µg/mL, an MIC (A. baumannii; A. baumannii F4) of 4 µg/mL and an MIC (A. baumannii; A. baumannii F65) of 8 µg/mL. It also gave an MIC (A. baumannii; A. baumannii F66) of 8 µg/mL, an MIC (A. baumannii; A. baumannii F67) of 8 µg/mL and an MIC (K. acrogenes; K. acrogenes CCARM 16006) of 16 µg/mL. The MIC (K. acrogenes; K. acrogenes CCARM 16008) was 8 µg/mL, the MIC (K. acrogenes; K. acrogenes CCARM 16010) was 8 µg/mL and the “antibacterial activity (number of bacterium)” value (K. pneumoniae; K. pneumoniae ATCC700603, KCTC2208, CCARM10143, F85, 2 hours, Tris-HCl pH 7.5) was “more excellent antibacterial activity”. The “effect of adding NaCl on antibacterial activity” value (K. pneumoniae; K. pneumoniae KCTC 2208, Tris or Hepes buffer with 150 mM NaCl) was “negative effect of salt presence was significantly reduced”, the “increase in activity compared to mtEC340” value (K. pneumoniae; K. pneumoniae strains, 2 hours) was no more than 4 log and the “viable bacterial cells after culturing for 2 hours” value (K. pneumoniae; all tested K. pneumoniae strains) was “No viable bacterial cells were detected”. For the same molecule, the MIC range [1] was 4 to 32 µg/mL.
